The RNAGym collection of RNA variant scans (doi:10.1021/acssynbio.7b00057)

B1: Pistol ribozyme (parent)
chain: GGGUCGUUGUUCCAUAAUCGCGUGGAUAUGGCACGCAAGUUUCUACCGGGCACCGUAAAUGUCCGACUGGAGCCGUUCGGGCGGCUAUAAACAGACCUCAGGCCCGAAGCGUGGCGGCACCUGCCGCCGGUGGUAAAAAAGAUCGGAAGAGCACACGUCU

Variants of: B1
Test: aptazyme ON/OFF ratio, guanine; higher = stronger switching; co-transcriptional cleavage with and without guanine

In order of rising “aptazyme ON/OFF ratio” value:
1. U7G U8A G9A U11A C13G  1.02
2. U8A G9C U10G U11A C13A  1.03
3. U7A U8A G9C U10C C12A C13A  1.04
4. U7C U8A G9A U11G C13G  1.04
5. U8A G9A U11C C13A  1.04
6. U8A U10A U11A C12A C13G  1.04
7. U8C G9U U11C C12A C13G  1.04
8. U7C U8C U10A C12A C13U  1.04
9. U8A G9C U10C U11A C12A C13G  1.05
10. U7G U8A G9C U11C C12A C13U  1.06
11. U8G G9C U10A U11C C12A C13A  1.06
12. U7G U8A G9U U10C C13G  1.06
13. U7A G9U U10G U11C  1.06
14. U7G U8C G9C U10C U11G C12G  1.06
15. U7G G9A U10A C13A  1.07
16. U7G U10G U11A C13G  1.07
17. U7A G9U U10A U11G C12A C13A  1.08
18. U7G U8G G9U U10A U11A C13G  1.08
19. U7C U8C G9U U10G U11A C12G C13U  1.08
20. U7C U8G G9C U11G C12G C13U  1.09
21. U7G U8A G9U U10C U11A C12A C13U  1.09
22. U7C G9U U11G C12A C13G  1.1
23. U7A U8C U10C U11C C12G C13G  1.1
24. G9U U10C U11C C12U C13A  1.11
25. U7C U8G U10A U11G C13A  1.11
26. G9C U10C U11A C12A C13U  1.11
27. U8G G9U U10C C12U C13A  1.11
28. U7C U8A U11A C12A C13A  1.12
29. U8C U10A U11A C12A C13U  1.12
30. U7A U8A G9C U10A U11C C12A C13G  1.12
31. U7C U8A U10C U11A C13A  1.12
32. U7G U8C G9A U10A C12A C13G  1.13
33. U7A U11A C13A  1.13
34. G9C U11G C12A C13A  1.14
35. U7C U10G U11G C13A  1.15
36. U8A U10A C12G C13A  1.15
37. U7C U8A G9A U10G C12A  1.15
38. U7C U8C U10G U11C C13U  1.16
39. U8C U11G C12A C13A  1.16
40. U7A U8A G9U U10G U11G C12G C13G  1.16
41. U7C U8G U11A C13U  1.16
42. U7A U8A G9C U10G U11G C12A C13G  1.17
43. U7C U8A U10C C12A C13A  1.17
44. U7G U8A U10G C12U  1.17
45. U8G G9U U10A U11A C12G C13G  1.18
46. U7C U8A G9C U10G U11C C12U C13A  1.19
47. U7C U8G G9U U10G C13A  1.19
48. U8C G9C C12G  1.19
49. U7C U8A G9C U10A U11A C13A  1.2
50. U7C U8C G9U U10A C12A C13U  1.2
51. U7C U8G G9C U11G C12U C13G  1.21
52. U7C U11A C13A  1.21
53. G9U U10G U11A C12U C13A  1.21
54. U7C U8A G9U U10A U11A C12U C13G  1.21
55. U7C G9U U10C U11A C12G C13G  1.23
56. U7G U8A C12A C13U  1.23
57. U7C U8G G9A U10G U11G C12G C13U  1.24
58. U7C U8C G9A U10G U11A C13G  1.25
59. U7C G9U U10A U11A C13U  1.25
60. U8C G9A U10C C12G C13U  1.25
61. U7G U8A U10G C12G C13A  1.25
62. U7A U8G G9U C13A  1.25
63. U7A U8A G9C U10G U11A C12G C13A  1.26
64. U7G U8A U10A U11G C12G C13A  1.26
65. U7G U8C U10C U11C C12A C13A  1.27
66. U7A U8G U10G U11A C13U  1.3
67. U7A U8G G9A U10A U11A C12A C13A  1.3
68. U8A G9U U10G U11A C12G C13G  1.31
69. U7A U8C G9U U10A C12G C13U  1.32
70. U7G U8A G9A U10G U11G C13G  1.34
71. U7G U8G G9U U10G C12G C13U  1.35
72. U7A U8G G9A C13U  1.39
73. U7C U8C G9A U10C U11C C12A C13A  1.39
74. U8G G9A U10G U11C C12G C13U  1.4
75. U7C G9C U10C U11A C12G C13G  1.41
76. U7G U8G U10C U11G C12U C13U  1.41
77. U7A U8G G9C U10G C12G C13U  1.44
78. G9A C13A  1.45
79. U8G G9A U10G U11G C13U  1.45
80. U7A U8C G9A U10C U11G C13U  1.46
81. U7G U8A G9A U10G U11G C12U  1.48
82. G9U U10G U11A C12G  2.23
83. U7G G9U U10A  3.84
